From paper PMC2234237 (The Journal of Cell Biology, 2008) come the findings set out here.

The target in assay [1] is T1, Pih1/Nop17, full length, untagged, recombinant (monomeric species) (S. cerevisiae, UniProt P38768 1-344).
T1 sequence: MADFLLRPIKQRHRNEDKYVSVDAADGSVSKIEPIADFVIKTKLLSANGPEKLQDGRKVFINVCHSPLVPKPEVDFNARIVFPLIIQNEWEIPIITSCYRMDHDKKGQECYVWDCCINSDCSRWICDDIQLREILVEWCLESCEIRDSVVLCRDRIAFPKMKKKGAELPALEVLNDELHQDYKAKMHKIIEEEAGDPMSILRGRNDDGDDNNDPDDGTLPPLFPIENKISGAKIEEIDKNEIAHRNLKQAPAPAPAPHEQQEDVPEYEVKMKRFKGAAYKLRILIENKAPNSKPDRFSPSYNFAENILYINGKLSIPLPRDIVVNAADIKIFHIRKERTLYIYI
The assay is described as follows: pull-down.

Assay [2] deals with Hsp82-MC (residues 260-709) (S. cerevisiae, UniProt P02829 260-709). The assay is described as follows: pull-down.
Assay [3] has as its target Rvb2, recombinant (S. cerevisiae, UniProt Q12464 1-471). The assay is described as follows: SEC. A general note: Size exclusion chromatography separates by hydrodynamic size, large species first.

Chain of Hsp82-MC (residues 260-709) (P02829 260-709): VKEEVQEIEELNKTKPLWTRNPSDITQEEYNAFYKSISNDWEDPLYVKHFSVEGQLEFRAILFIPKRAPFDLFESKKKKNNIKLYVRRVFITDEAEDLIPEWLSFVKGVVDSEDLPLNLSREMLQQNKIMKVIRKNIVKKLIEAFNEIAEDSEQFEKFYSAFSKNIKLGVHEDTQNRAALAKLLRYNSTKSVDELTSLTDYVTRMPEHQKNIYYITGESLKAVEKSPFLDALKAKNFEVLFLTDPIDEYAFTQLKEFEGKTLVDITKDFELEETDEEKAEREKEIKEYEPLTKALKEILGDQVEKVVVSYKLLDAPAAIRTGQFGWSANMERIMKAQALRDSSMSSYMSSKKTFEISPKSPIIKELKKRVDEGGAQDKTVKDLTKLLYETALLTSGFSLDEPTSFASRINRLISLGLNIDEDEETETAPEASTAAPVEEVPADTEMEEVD
Chain of Rvb2, recombinant (Q12464 whole entry): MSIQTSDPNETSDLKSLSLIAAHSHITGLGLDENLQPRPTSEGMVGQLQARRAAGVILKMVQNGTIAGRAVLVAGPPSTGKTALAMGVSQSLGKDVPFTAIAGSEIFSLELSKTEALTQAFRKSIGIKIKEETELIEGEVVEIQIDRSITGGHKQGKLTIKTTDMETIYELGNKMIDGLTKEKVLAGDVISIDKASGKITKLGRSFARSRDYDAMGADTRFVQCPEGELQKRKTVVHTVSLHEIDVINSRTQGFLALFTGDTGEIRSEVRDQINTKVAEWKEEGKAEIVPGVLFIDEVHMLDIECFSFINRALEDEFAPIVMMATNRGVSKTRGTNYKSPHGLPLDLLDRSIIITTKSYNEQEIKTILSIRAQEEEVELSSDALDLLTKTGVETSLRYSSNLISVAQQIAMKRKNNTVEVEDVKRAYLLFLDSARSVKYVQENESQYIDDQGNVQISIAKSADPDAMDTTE

B1: Tah1, full length, recombinant (natural protein)
chain: MSQFEKQKEQGNSLFKQGLYREAVHCYDQLITAQPQNPVGYSNKAMALIKLGEYTQAIQMCQQGLRYTSTAEHVAIRSKLQYRLELAQGAVGSVQIPVVEVDELPEGYDRS
For B1, the binding result in assay [1] and in assay [2] was “binds” in each case.

B2: Sti1 TPR2a domain (residues 260-386) (domain or fragment)
chain: IEADKEKAEGNKFYKARQFDEAIEHYNKAWELHKDITYLNNRAAAEYEKGEYETAISTLNDAVEQGREMRADYKVISKSFARIGNAYHKLGDLKKTIEYYQKSLTEHRTADILTKLRNAEKELKKAE
With B2, the binding result in assay [2] is reported as “binds”.

B3: Rvb1, recombinant (natural protein)
chain: MVAISEVKENPGVNSSNSGAVTRTAAHTHIKGLGLDESGVAKRVEGGFVGQIEAREACGVIVDLIKAKKMSGRAILLAGGPSTGKTALALAISQELGPKVPFCPLVGSELYSVEVKKTETLMENFRRAIGLRIKETKEVYEGEVTELTPEDAENPLGGYGKTISHVIVGLKSAKGTKTLRLDPTIYESIQREKVSIGDVIYIEANTGAVKRVGRSDAYATEFDLETEEYVPLPKGEVHKKKEIVQDVTLHDLDVANARPQGGQDVISMMGQLLKPKKTEITEKLRQEVNKVVAKYIDQGVAELIPGVLFIDEVNMLDIEIFTYLNKALESNIAPVVVLASNRGMTTVRGTEDVISPHGVPPDLIDRLLIVRTLPYDKDEIRTIIERRATVERLQVESSALDLLATMGTETSLRYALQLLAPCGILAQTSNRKEIVVNDVNEAKLLFLDAKRSTKILETSANYL
For the molecule B3, the binding result in assay [3] was “binds”.
